Positions count from the first letter of the chain named.
B1: 7A2 Fab (His- and FLAG-tagged, hinged format) (Fab, V domains shown)
VH: QMQLVQSGAEVKKPGAPVKVSCKVSGYTFTDYYMHWVQQAPGKGLEWMGLVDPEDGETIYAEKFQGRVTITADTSTDTAYMELSSLRSEDTAVYYCATDATTPYYGMDVWGQGTLVTVSS
VL: DIQMTQSPSSLSASVGDRVTITCQASQDISNYLNWYQQKPGRAPKVLIYDASNLETGVPSRFSGSGSGTEFTLTISNLRPDDFATYYCQQGDSFPLTFGGGTKVEIK
notes: Fab from pBIOCAM7-3F in HEK293 cells, hinged format (Leu-Glu after VH), hexahistidine and tri-FLAG tags at the C-terminus of the heavy chain
B2: 110_A12 Fab (His/tri-FLAG tagged, hinged) (Fab, V domains shown)
VH: B1 VH with Y105W, G106F, M107P, D108R, V109E
VL: B1 VL
notes: Fab from pBIOCAM7-3F, hinged, hexahistidine and tri-FLAG tags on the heavy chain
B3: 107_A01 Fab (His/tri-FLAG tagged, hinged) (Fab, V domains shown)
VH: B1 VH with Y105W, D108V, V109S
VL: B1 VL
notes: as for B2
B4: 111_D06 Fab (His/tri-FLAG tagged, hinged) (Fab, V domains shown)
VH: B1 VH with Y105W, D108W, V109Q
VL: B1 VL
notes: as for B2
B5: 110_A06 Fab (His/tri-FLAG tagged, hinged) (Fab, V domains shown)
VH: B1 VH with Y105W, D108Q, V109L
VL: B1 VL
notes: as for B2
B6: 107_A08 Fab (His/tri-FLAG tagged, hinged) (Fab, V domains shown)
VH: B1 VH with Y105W, D108V, V109E
VL: B1 VL
notes: as for B2
B7: 110_A10 Fab (His/tri-FLAG tagged, hinged) (Fab, V domains shown)
VH: B1 VH with Y105W, D108Q, V109T
VL: B1 VL
notes: as for B2
B8: 107_A07 Fab (His/tri-FLAG tagged, hinged) (Fab, V domains shown)
VH: B1 VH with Y105W, D108M, V109W
VL: B1 VL
notes: Fab from pBIOCAM7-3F in HEK293 cells, hinged format (Leu-Glu after VH), hexahistidine and tri-FLAG tags on the heavy chain
B9: 112_H11 (scFv)
scFv: QMQLVQSGAEVKKPGAPVKVSCKVSGYTFTDYYMHWVQQAPGKGLEWMGLVDPEDGETIYAEKFQGRVTITADTSTDTAYMELSSLRSEDTAVYYCATDATTPYWFPQVWGQGTLVTVSSLEGGGGSGGGGSGGGASDIQMTQSPSSLSASVGDRVTITCQASQDISNYLNWYQQKPGRAPKVLIYDASNLETGVPSRFSGSGSGTEFTLTISNLRPDDFATYYCQQGDSFPLTFGGGTKVEIK
notes: not shown: 6xHis/tri-FLAG tags
B10: 112_H4 (scFv)
scFv: B9 scFv with F106G, P107M, Q108W, V109K
notes: as for B9
B11: 112_H6 (scFv)
scFv: B9 scFv with F106G, P107M, Q108M, V109E
notes: as for B9
B12: 112_H8 (scFv)
scFv: B9 scFv with F106L, Q108L, V109Y
notes: as for B9
B13: 112_H7 (scFv)
scFv: B9 scFv with F106G, P107V, V109S
notes: as for B9
B14: 112_H1 (scFv)
scFv: B9 scFv with F106G, P107A, Q108A
notes: as for B9
B15: 112_H9 (scFv)
scFv: B9 scFv with Q108Y, V109S
notes: as for B9
B16: 112_H5 (scFv)
scFv: B9 scFv with F106G, P107M, V109A
notes: as for B9
B17: 112_H10 (scFv)
scFv: B9 scFv with F106G, P107I, Q108R, V109K
notes: as for B9
B18: 112_G11 (scFv)
scFv: B9 scFv with Q108Y, V109T
notes: as for B9
B19: 112_G9 (scFv)
scFv: B9 scFv with F106G, P107M, V109R
notes: as for B9
B20: 112_H12 (scFv)
scFv: B9 scFv with Q108Y, V109K
notes: as for B9
B21: 107_A01 scFv (6xHis/tri-Flag tags) (scFv)
scFv: B9 scFv with F106G, P107M, Q108V, V109S
notes: 7A2 derivative, only VH CDR3 changed; not shown: 6xHis/tri-FLAG tags of pSANG10-3F
B22: 107_A08 scFv (6xHis/tri-Flag tags) (scFv)
scFv: B9 scFv with F106G, P107M, Q108V, V109E
notes: as for B21
B23: 111_D06 scFv (6xHis/tri-Flag tags) (scFv)
scFv: B9 scFv with F106G, P107M, Q108W, V109Q
notes: as for B21
B24: 110_A12 scFv (6xHis/tri-Flag tags) (scFv)
scFv: B9 scFv with Q108R, V109E
notes: as for B21
B25: 110_A10 scFv (6xHis/tri-Flag tags) (scFv)
scFv: B9 scFv with F106G, P107M, V109T
notes: as for B21
B26: 107_A07 scFv (6xHis/tri-Flag tags) (scFv)
scFv: B9 scFv with F106G, P107M, Q108M, V109W
notes: as for B21
B27: 112_G01 scFv (6xHis/tri-Flag tags) (scFv)
scFv: B9 scFv with F106G, P107M, Q108W, V109H
notes: as for B9
B28: 110_A06 scFv (6xHis/tri-Flag tags) (scFv)
scFv: B9 scFv with F106G, P107M, V109L
notes: 7A2 derivative, only VH CDR3 changed; also called 110_A6; not shown: 6xHis/tri-FLAG tags of pSANG10-3F
B29: 110_A01 scFv (6xHis/tri-Flag tags) (scFv)
scFv: B9 scFv with Q108Y, V109L
notes: 7A2 derivative, only VH CDR3 changed; also called 110_A1; not shown: 6xHis/tri-FLAG tags of pSANG10-3F

The binders below were run against T1, MET928 (cMET protein derived from construct 25-928) (human, UniProt P08581 25-928) (assay: Biacore SPR, MET-928 on chip, Fab format).
T1 construct: MET ectodomain, residues 1-24 are the leader; produced in Lec 8 cells; background text says the ectodomain is furin-cleaved into alpha (25-307) and beta chains; biotinylated form used in selections; also called MET928 extracellular domain; Met extracellular domain
T1 sequence (P08581 25-928): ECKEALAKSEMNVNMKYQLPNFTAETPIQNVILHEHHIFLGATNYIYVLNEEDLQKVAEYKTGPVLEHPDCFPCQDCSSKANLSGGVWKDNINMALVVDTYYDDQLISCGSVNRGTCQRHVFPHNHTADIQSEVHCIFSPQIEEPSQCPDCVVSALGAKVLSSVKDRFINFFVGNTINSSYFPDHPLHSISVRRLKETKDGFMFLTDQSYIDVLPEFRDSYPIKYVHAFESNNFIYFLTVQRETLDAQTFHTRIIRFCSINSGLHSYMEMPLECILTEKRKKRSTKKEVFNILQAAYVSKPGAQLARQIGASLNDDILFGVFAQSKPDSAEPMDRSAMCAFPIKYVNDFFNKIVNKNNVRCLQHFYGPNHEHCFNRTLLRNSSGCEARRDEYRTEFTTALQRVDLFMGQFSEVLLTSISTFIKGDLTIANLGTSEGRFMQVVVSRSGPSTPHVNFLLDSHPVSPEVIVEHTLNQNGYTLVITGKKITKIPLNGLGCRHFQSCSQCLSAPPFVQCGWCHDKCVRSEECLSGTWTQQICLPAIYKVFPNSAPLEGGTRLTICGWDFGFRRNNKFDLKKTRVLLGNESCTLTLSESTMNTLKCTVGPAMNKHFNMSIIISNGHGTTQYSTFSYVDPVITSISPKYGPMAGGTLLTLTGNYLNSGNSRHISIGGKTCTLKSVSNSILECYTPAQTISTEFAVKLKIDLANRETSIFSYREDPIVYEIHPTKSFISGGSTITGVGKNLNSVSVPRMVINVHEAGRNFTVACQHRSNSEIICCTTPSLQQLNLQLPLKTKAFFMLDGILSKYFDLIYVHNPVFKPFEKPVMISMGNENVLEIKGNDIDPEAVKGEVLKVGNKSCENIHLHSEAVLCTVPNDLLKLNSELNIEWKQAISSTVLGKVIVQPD
Protocol: (§1) The binding characteristics of 7A2 and its derivatives were measured using a GE Healthcare Biacore biosensor.
B1 showed a Kd of 77.3 nM, a koff of 0.0882 s⁻¹ and a kon of 1.14e+06 M⁻¹ s⁻¹. Work on B2 yielded a Kd of 2.79 nM, a koff of 0.00161 s⁻¹ and a kon of 577000 M⁻¹ s⁻¹. Work on B3 yielded a Kd of 1.43 nM, a koff of 0.00123 s⁻¹ and a kon of 863000 M⁻¹ s⁻¹. Binder B4 has a Kd of 2.29 nM, a koff of 0.00197 s⁻¹ and a kon of 860000 M⁻¹ s⁻¹. With B5 the Kd was 1.9 nM, the koff was 0.00128 s⁻¹ and the kon was 677000 M⁻¹ s⁻¹. B6 showed a Kd of 2.29 nM, a koff of 0.00192 s⁻¹ and a kon of 838000 M⁻¹ s⁻¹. B7 gave a Kd of 2.23 nM, a koff of 0.00168 s⁻¹ and a kon of 756000 M⁻¹ s⁻¹. B8 was tested, and the Kd was 1.23 nM, the koff was 0.00116 s⁻¹ and the kon was 949000 M⁻¹ s⁻¹.

Each binder was assayed against human MET (c-Met) on cells (SKOV-3, BxPC3) (human, UniProt P08581 25-1390) (assay: cell-based or functional assay).
Sequence of human MET (c-Met) on cells (SKOV-3, BxPC3) (P08581 25-1390): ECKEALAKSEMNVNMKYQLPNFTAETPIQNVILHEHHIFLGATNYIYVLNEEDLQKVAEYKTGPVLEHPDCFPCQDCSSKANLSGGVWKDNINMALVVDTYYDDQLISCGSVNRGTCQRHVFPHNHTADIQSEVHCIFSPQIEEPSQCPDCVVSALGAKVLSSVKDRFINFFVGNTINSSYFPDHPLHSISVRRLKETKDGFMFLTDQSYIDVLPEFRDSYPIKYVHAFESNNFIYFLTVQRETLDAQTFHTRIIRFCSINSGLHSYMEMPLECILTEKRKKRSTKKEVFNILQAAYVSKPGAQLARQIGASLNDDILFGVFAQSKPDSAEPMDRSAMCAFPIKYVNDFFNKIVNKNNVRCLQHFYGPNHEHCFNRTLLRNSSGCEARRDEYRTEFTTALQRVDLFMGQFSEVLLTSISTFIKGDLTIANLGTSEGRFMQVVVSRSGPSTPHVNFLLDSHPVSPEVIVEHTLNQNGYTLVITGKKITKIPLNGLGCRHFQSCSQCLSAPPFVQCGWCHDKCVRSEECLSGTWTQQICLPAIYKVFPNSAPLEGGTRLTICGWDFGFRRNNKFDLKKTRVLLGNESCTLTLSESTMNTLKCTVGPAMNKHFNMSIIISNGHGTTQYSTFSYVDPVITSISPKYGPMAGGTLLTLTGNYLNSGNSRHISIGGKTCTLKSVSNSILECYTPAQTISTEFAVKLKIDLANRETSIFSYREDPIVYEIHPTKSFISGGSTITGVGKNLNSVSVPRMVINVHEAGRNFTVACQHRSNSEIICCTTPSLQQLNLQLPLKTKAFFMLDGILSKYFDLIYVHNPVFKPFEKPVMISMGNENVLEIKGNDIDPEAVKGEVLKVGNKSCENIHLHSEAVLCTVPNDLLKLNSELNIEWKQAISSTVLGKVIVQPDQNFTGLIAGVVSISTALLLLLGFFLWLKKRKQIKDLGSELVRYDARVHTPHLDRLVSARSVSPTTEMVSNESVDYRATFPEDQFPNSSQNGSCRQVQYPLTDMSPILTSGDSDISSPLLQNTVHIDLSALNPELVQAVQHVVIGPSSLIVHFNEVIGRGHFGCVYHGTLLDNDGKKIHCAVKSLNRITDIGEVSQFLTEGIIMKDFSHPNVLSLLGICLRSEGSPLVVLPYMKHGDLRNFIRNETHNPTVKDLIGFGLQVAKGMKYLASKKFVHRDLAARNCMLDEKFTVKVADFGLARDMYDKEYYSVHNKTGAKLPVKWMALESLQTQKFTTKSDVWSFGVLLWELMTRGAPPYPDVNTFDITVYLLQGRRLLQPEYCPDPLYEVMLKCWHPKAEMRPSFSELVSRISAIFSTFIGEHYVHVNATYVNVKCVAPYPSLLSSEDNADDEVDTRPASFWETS
B1 was tested, and the “IC50, inhibition of HGF/SF-induced migration of SKOV-3 cells, Assay 1” value (from here on “IC50, inhibition … Assay 1”) was 387 nM, the “IC50, inhibition of HGF/SF-induced migration of SKOV-3 cells, Assay 2” value was 493 nM and the “IC50, inhibition of HGF/SF-induced migration of SKOV-3 cells, Assay 3” value (“IC50, inhibition … Assay 3” for short) was 278 nM. The “Mean IC50, inhibition of HGF/SF-induced migration of SKOV-3 cells” value (“Mean IC50, inhibition” for short) was 386 nM. For B3, the “IC50, inhibition … Assay 1” value was 9.7 nM, the “IC50, inhibition … Assay 3” value was 11.4 nM and the “Mean IC50, inhibition” value was 10.6 nM. B6 was tested, and the “IC50, inhibition … Assay 1” value was 10.5 nM and the “Mean IC50, inhibition” value was 10.5 nM. In the case of B8, the “IC50, inhibition … Assay 1” value is reported as 9.7 nM, the “IC50, inhibition of HGF/SF-induced migration of SKOV-3 cells, Assay 2” value is reported as 9.2 nM and the “IC50, inhibition … Assay 3” value is reported as 3.1 nM. The “Mean IC50, inhibition” value was 7.4 nM.

The binders below were run against T1, MET928 (cMET protein derived from …) (assay: ELISA, soluble scFv).
B9: binds. B10: binds. B11: binds. B12: binds. B13: binds. B14: binds. B15: binds. B16: binds. B17: binds. B18: binds. B19: binds. B20: binds.

These binders were tested against T1, MET928 (cMET protein derived from …) (assay: Biacore SPR, MET-928 on chip, scFv format).
Protocol: as §1
For B21, the Kd was 0.0652 nM, the koff was 0.00321 s⁻¹ and the kon was 4.92e+07 M⁻¹ s⁻¹. B22 showed a Kd of 0.274 nM, a koff of 0.00691 s⁻¹ and a kon of 2.52e+07 M⁻¹ s⁻¹. With B23 the Kd was 0.183 nM, the koff was 0.00549 s⁻¹ and the kon was 3.01e+07 M⁻¹ s⁻¹. Work on B24 yielded a Kd of 0.958 nM, a koff of 0.00156 s⁻¹ and a kon of 1.63e+06 M⁻¹ s⁻¹. Binder B25 has a Kd of 0.301 nM, a koff of 0.00273 s⁻¹ and a kon of 9.08e+06 M⁻¹ s⁻¹. B26 showed a Kd of 0.346 nM, a koff of 0.00115 s⁻¹ and a kon of 3.31e+06 M⁻¹ s⁻¹. With B27 the Kd was 0.786 nM, the koff was 0.00238 s⁻¹ and the kon was 3.03e+06 M⁻¹ s⁻¹. Binder B28 has a Kd of 0.121 nM, a koff of 0.00417 s⁻¹ and a kon of 3.45e+07 M⁻¹ s⁻¹. B29 was tested, and the Kd was 0.322 nM, the koff was 0.00163 s⁻¹ and the kon was 5.05e+06 M⁻¹ s⁻¹.
